From paper PMC9482650, “Quantitative fragmentomics allow affinity mapping of interactomes” (Nature Communications, 2022)

How the values were obtained:
Test in all cases: holdup assay
Design in all cases: key: below the threshold = too weak to quantify, mostly under pKd 3.1 to 4
HTRA1, Q92743 = target: HTRA1, Q92743
SNTG1, Q9NSN8 = target: T1, SNTG1, Q9NSN8
T1 sequence (Q9NSN8 52-150, limits assumed, looked up): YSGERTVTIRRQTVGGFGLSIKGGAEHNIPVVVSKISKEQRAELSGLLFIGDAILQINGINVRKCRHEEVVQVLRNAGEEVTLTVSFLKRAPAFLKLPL

Inadl_8, Q8NI35 = target: Inadl_8, Q8NI35
Inadl_8, Q8NI35, sequence (Q8NI35 1425-1530): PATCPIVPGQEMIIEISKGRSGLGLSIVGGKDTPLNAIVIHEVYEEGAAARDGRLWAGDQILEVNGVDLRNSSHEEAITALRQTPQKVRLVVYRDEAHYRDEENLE

GRID2IP_1, A4D2P6 = target: GRID2IP_1, A4D2P6
GRID2IP_1, A4D2P6, sequence (A4D2P6 1-87): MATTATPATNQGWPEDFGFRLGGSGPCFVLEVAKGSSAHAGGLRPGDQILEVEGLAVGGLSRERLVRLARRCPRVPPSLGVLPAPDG

LNX1_3, Q8TBB1 = target: LNX1_3, Q8TBB1
LNX1_3, Q8TBB1, sequence (Q8TBB1 500-596): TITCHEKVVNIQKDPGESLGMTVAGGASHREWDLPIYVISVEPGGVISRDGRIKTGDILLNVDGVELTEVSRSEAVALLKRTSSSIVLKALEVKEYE

PDZRN3_1, Q9UPQ7 = target: T2, PDZRN3_1, Q9UPQ7
T2 sequence (Q9UPQ7 244-349, limits assumed, looked up): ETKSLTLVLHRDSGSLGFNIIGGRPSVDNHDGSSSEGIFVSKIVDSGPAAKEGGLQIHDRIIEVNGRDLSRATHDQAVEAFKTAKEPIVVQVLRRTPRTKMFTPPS

GRIP1_2, Q9Y3R0 = target: T3, GRIP1_2, Q9Y3R0
T3 sequence (Q9Y3R0 145-248, limits assumed, looked up): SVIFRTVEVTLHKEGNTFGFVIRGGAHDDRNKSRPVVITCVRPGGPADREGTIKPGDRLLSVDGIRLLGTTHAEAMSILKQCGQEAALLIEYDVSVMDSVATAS

HTRA2, O43464 = target: HTRA2, O43464
HTRA2, O43464, sequence (O43464 355-458): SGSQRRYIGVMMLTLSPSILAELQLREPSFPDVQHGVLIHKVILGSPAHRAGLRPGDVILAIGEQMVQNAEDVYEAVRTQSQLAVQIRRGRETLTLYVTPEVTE

IL16_4, Q14005 = target: IL16_4, Q14005
IL16_4, Q14005, sequence (Q14005 1229-1329): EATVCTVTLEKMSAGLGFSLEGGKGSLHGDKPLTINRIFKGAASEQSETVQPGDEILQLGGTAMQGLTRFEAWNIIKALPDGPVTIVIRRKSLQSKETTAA

FRMPD2_2, Q68DX3 = target: FRMPD2_2, Q68DX3
FRMPD2_2, Q68DX3, sequence (Q68DX3 944-1038): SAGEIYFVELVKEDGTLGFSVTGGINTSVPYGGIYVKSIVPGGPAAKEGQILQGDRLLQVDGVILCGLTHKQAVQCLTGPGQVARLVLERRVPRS

LAP2, Q96RT1 = target: LAP2, Q96RT1
LAP2, Q96RT1, sequence (Q96RT1 other isoform, or with tags, fused parts or gaps): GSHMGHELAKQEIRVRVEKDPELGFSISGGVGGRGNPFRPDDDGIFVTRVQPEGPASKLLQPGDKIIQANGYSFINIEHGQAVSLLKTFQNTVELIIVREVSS

LIN7B, Q9HAP6 = target: T4, LIN7B, Q9HAP6
T4 sequence (Q9HAP6 88-185, limits assumed, looked up): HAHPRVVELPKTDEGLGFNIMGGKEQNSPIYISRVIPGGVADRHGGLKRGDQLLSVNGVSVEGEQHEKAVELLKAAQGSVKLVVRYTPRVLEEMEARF

APBA2_1, Q99767 = target: T5, APBA2_1, Q99767
T5 sequence (Q99767 563-664, limits assumed, looked up): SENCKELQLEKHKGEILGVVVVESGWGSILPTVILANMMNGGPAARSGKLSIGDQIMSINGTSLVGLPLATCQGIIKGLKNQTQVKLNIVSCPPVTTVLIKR

MPP6, Q9NZW5 = target: T6, MPP6, Q9NZW5
T6 sequence (Q9NZW5 125-219, limits assumed, looked up): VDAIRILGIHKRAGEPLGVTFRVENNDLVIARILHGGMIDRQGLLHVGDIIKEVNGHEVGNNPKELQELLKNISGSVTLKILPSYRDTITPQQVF

GORASP2, Q9H8Y8 = target: GORASP2, Q9H8Y8
ARHGEF12, Q9NZN5-2 = target: ARHGEF12, Q9NZN5-2
ARHGEF12, Q9NZN5-2, sequence (Q9NZN5 other isoform, or with tags, fused parts or gaps): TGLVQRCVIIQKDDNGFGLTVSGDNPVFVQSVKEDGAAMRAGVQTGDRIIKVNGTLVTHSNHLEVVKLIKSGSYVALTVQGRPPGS

FRMPD1, Q5SYB0 = target: T7, FRMPD1, Q5SYB0
T7 sequence (Q5SYB0 52-145, limits assumed, looked up): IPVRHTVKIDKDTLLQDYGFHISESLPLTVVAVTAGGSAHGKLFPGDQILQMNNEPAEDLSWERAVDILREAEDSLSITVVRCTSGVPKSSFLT

DVL3, Q92997 = target: T8, DVL3, Q92997
T8 sequence (Q92997 244-331, limits assumed, looked up): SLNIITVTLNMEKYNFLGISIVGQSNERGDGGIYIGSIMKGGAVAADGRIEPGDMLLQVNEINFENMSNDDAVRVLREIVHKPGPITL

PCLO, Q9Y6V0 = target: T9, PCLO, Q9Y6V0
T9 sequence (Q9Y6V0 4491-4600, limits assumed, looked up): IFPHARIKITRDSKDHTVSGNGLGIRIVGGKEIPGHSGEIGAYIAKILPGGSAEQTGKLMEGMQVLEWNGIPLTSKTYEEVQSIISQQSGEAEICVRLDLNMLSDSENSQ

DLG3_1, Q92796 = target: T10, DLG3_1, Q92796
T10 sequence (Q92796 125-227, limits assumed, looked up): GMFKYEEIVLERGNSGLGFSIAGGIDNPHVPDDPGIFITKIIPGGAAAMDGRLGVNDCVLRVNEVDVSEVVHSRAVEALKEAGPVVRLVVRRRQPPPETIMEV

DLG3_2, Q92796 = target: T11, DLG3_2, Q92796
T11 sequence (Q92796 221-321, limits assumed, looked up): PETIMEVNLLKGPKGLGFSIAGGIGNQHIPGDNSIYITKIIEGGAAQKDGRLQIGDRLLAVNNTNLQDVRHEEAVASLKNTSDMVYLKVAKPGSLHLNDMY

SCRIB_3, Q14160 = target: SCRIB_3, Q14160
SCRIB_3, Q14160, sequence (Q14160 999-1103): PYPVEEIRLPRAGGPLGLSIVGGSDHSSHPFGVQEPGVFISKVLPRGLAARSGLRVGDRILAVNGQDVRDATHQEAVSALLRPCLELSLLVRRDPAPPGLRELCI

NHERF4_1, Q86UT5-2 = target: NHERF4_1, Q86UT5-2
NHERF4_1, Q86UT5-2, sequence (Q86UT5 other isoform, or with tags, fused parts or gaps): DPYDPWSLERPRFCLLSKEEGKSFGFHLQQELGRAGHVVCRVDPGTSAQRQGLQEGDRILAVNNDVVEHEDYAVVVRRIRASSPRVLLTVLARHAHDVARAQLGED

TJP1_3, Q07157 = target: TJP1_3, Q07157
TJP1_3, Q07157, sequence (Q07157 416-512): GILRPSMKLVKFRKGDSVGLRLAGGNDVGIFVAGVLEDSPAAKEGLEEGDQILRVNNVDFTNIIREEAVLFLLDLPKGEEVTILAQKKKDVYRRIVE

LIN7A, O14910 = target: T12, LIN7A, O14910
T12 sequence (O14910 103-200, limits assumed, looked up): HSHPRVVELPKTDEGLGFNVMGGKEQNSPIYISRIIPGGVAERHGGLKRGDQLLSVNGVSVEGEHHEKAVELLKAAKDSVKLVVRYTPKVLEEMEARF

PDLIM1, O00151 = target: PDLIM1, O00151
PDLIM1, O00151, sequence (O00151 1-87): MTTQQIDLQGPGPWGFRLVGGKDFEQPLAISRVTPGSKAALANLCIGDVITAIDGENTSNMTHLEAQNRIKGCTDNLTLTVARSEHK

[1] = plain residues with an end cap or a label only (N-terminal biotin on a linker: (peg)3)
[2] = plain residues with an end cap or a label only (N-terminal biotin on a linker: ado-ado)

HTRA1, Q92743, sequence (Q92743 360-477): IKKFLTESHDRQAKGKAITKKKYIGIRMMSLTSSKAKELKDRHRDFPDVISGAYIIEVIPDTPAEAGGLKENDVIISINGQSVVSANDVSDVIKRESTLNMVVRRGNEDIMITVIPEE

B1: SARS-Cov2-N, P0DTC9 (peptide)
chain: QQSMSSADSTQA
pKd (HTRA1, Q92743; [1]): below the threshold
pKd (SNTG1, Q9NSN8; [1]): below the threshold
pKd (Inadl_8, Q8NI35; [1]): below the threshold
pKd (GRID2IP_1, A4D2P6; [1]): below the threshold
pKd (LNX1_3, Q8TBB1; [1]): below the threshold
pKd (PDZRN3_1, Q9UPQ7; [1]): below the threshold
pKd (GRIP1_2, Q9Y3R0; [1]): below the threshold
pKd (HTRA2, O43464; [1]): below the threshold
pKd (IL16_4, Q14005; [1]): below the threshold
pKd (FRMPD2_2, Q68DX3; [1]): below the threshold
pKd (LAP2, Q96RT1; [1]): below the threshold
pKd (LIN7B, Q9HAP6; [1]): below the threshold
pKd (APBA2_1, Q99767; [1]): below the threshold
pKd (MPP6, Q9NZW5; [1]): below the threshold
pKd (GORASP2, Q9H8Y8; [1]): below the threshold
pKd (ARHGEF12, Q9NZN5-2; [1]): below the threshold
pKd (FRMPD1, Q5SYB0; [1]): below the threshold
pKd (DVL3, Q92997; [1]): below the threshold
pKd (PCLO, Q9Y6V0; [1]): below the threshold
pKd (DLG3_1, Q92796; [1]): below the threshold
pKd (DLG3_2, Q92796; [1]): below the threshold
pKd (SCRIB_3, Q14160; [1]): below the threshold
pKd (NHERF4_1, Q86UT5-2; [1]): below the threshold
pKd (TJP1_3, Q07157; [1]): below the threshold
pKd (LIN7A, O14910; [1]): below the threshold
pKd (PDLIM1, O00151; [1]): below the threshold

B2: PLEKHA1, Q9HB21 (peptide)
chain: DDASLPVSDV
pKd (HTRA1, Q92743; [2]): below the threshold
pKd (SNTG1, Q9NSN8; [2]): 5.09
pKd (Inadl_8, Q8NI35; [2]): 4.94
pKd (GRID2IP_1, A4D2P6; [2]): below the threshold
pKd (LNX1_3, Q8TBB1; [2]): below the threshold
pKd (PDZRN3_1, Q9UPQ7; [2]): below the threshold
pKd (GRIP1_2, Q9Y3R0; [2]): below the threshold
pKd (HTRA2, O43464; [2]): below the threshold
pKd (IL16_4, Q14005; [2]): below the threshold
pKd (FRMPD2_2, Q68DX3; [2]): 4.87
pKd (LAP2, Q96RT1; [2]): 3.73
pKd (LIN7B, Q9HAP6; [2]): below the threshold
pKd (APBA2_1, Q99767; [2]): below the threshold
pKd (MPP6, Q9NZW5; [2]): below the threshold
pKd (GORASP2, Q9H8Y8; [2]): below the threshold
pKd (ARHGEF12, Q9NZN5-2; [2]): 4.36
pKd (FRMPD1, Q5SYB0; [2]): below the threshold
pKd (DVL3, Q92997; [2]): below the threshold
pKd (PCLO, Q9Y6V0; [2]): below the threshold
pKd (DLG3_1, Q92796; [2]): below the threshold
pKd (DLG3_2, Q92796; [2]): below the threshold
pKd (SCRIB_3, Q14160; [2]): 4.1
pKd (NHERF4_1, Q86UT5-2; [2]): below the threshold
pKd (TJP1_3, Q07157; [2]): below the threshold
pKd (LIN7A, O14910; [2]): below the threshold
pKd (PDLIM1, O00151; [2]): 3.57

B3: AQP3, Q92482 (peptide)
chain: LAHVKHKEQI
pKd (HTRA1, Q92743; [2]): below the threshold
pKd (SNTG1, Q9NSN8; [2]): below the threshold
pKd (Inadl_8, Q8NI35; [2]): below the threshold
pKd (GRID2IP_1, A4D2P6; [2]): below the threshold
pKd (LNX1_3, Q8TBB1; [2]): below the threshold
pKd (PDZRN3_1, Q9UPQ7; [2]): below the threshold
pKd (GRIP1_2, Q9Y3R0; [2]): below the threshold
pKd (HTRA2, O43464; [2]): below the threshold
pKd (IL16_4, Q14005; [2]): below the threshold
pKd (FRMPD2_2, Q68DX3; [2]): below the threshold
pKd (LAP2, Q96RT1; [2]): below the threshold
pKd (LIN7B, Q9HAP6; [2]): below the threshold
pKd (APBA2_1, Q99767; [2]): below the threshold
pKd (MPP6, Q9NZW5; [2]): below the threshold
pKd (GORASP2, Q9H8Y8; [2]): below the threshold
pKd (ARHGEF12, Q9NZN5-2; [2]): below the threshold
pKd (FRMPD1, Q5SYB0; [2]): below the threshold
pKd (DVL3, Q92997; [2]): below the threshold
pKd (PCLO, Q9Y6V0; [2]): below the threshold
pKd (DLG3_1, Q92796; [2]): below the threshold
pKd (DLG3_2, Q92796; [2]): below the threshold
pKd (SCRIB_3, Q14160; [2]): below the threshold
pKd (NHERF4_1, Q86UT5-2; [2]): below the threshold
pKd (TJP1_3, Q07157; [2]): below the threshold
pKd (LIN7A, O14910; [2]): below the threshold
pKd (PDLIM1, O00151; [2]): below the threshold

B4: SLC22A9, Q8IVM8 (peptide)
chain: EDPRVEVTQF
pKd (HTRA1, Q92743; [2]): 3.49
pKd (SNTG1, Q9NSN8; [2]): below the threshold
pKd (Inadl_8, Q8NI35; [2]): below the threshold
pKd (GRID2IP_1, A4D2P6; [2]): below the threshold
pKd (LNX1_3, Q8TBB1; [2]): below the threshold
pKd (PDZRN3_1, Q9UPQ7; [2]): below the threshold
pKd (GRIP1_2, Q9Y3R0; [2]): below the threshold
pKd (HTRA2, O43464; [2]): below the threshold
pKd (IL16_4, Q14005; [2]): below the threshold
pKd (FRMPD2_2, Q68DX3; [2]): below the threshold
pKd (LAP2, Q96RT1; [2]): below the threshold
pKd (LIN7B, Q9HAP6; [2]): 3.83
pKd (APBA2_1, Q99767; [2]): below the threshold
pKd (MPP6, Q9NZW5; [2]): below the threshold
pKd (GORASP2, Q9H8Y8; [2]): below the threshold
pKd (ARHGEF12, Q9NZN5-2; [2]): below the threshold
pKd (FRMPD1, Q5SYB0; [2]): below the threshold
pKd (DVL3, Q92997; [2]): below the threshold
pKd (PCLO, Q9Y6V0; [2]): below the threshold
pKd (DLG3_1, Q92796; [2]): below the threshold
pKd (DLG3_2, Q92796; [2]): 4.17
pKd (SCRIB_3, Q14160; [2]): 3.66
pKd (NHERF4_1, Q86UT5-2; [2]): 4.3
pKd (TJP1_3, Q07157; [2]): below the threshold
pKd (LIN7A, O14910; [2]): below the threshold
pKd (PDLIM1, O00151; [2]): below the threshold

B5: TRIP6, Q15654 (peptide)
chain: ELSATVTTDC
pKd (HTRA1, Q92743; [2]): 3.56
pKd (SNTG1, Q9NSN8; [2]): 3.48
pKd (Inadl_8, Q8NI35; [2]): 3.55
pKd (GRID2IP_1, A4D2P6; [2]): below the threshold
pKd (LNX1_3, Q8TBB1; [2]): below the threshold
pKd (PDZRN3_1, Q9UPQ7; [2]): below the threshold
pKd (GRIP1_2, Q9Y3R0; [2]): below the threshold
pKd (HTRA2, O43464; [2]): below the threshold
pKd (IL16_4, Q14005; [2]): below the threshold
pKd (FRMPD2_2, Q68DX3; [2]): 3.47
pKd (LAP2, Q96RT1; [2]): below the threshold
pKd (LIN7B, Q9HAP6; [2]): below the threshold
pKd (APBA2_1, Q99767; [2]): below the threshold
pKd (MPP6, Q9NZW5; [2]): below the threshold
pKd (GORASP2, Q9H8Y8; [2]): below the threshold
pKd (ARHGEF12, Q9NZN5-2; [2]): 4.44
pKd (FRMPD1, Q5SYB0; [2]): below the threshold
pKd (DVL3, Q92997; [2]): below the threshold
pKd (PCLO, Q9Y6V0; [2]): below the threshold
pKd (DLG3_1, Q92796; [2]): below the threshold
pKd (DLG3_2, Q92796; [2]): 4.23
pKd (SCRIB_3, Q14160; [2]): 4.24
pKd (NHERF4_1, Q86UT5-2; [2]): 3.69
pKd (TJP1_3, Q07157; [2]): below the threshold
pKd (LIN7A, O14910; [2]): below the threshold
pKd (PDLIM1, O00151; [2]): below the threshold
